Test results as given in PMC9253517 (The Journal of Experimental Medicine, 2022).

B1: JN021 (antibody, V domains shown)
VH: QLQLQESGPGLVKPSETLSLTCTVSGGSIRSRGYYWGWIRQPPGKGLEWIGSIDYSGSTYYNPSLKSRVTISVDTSKNQFSLKLNSVTAADTAVFYCASSADTYYDILTGYYKGWYIDYWGQGTLVTVSS
VL: LTQPRSVSGSPGQSVTISCAGTSSDVGGYNYVSWYQQHPGKAPKLMIFDVTKRPSGVPDRFSGSKSGNTASLTISGLQAEDDADYYCCSYAGSYTYWVFGGGTKLTVL
B2: JN019 (antibody, V domains shown)
VH: VQLVESGGGVVQPGRSLRLSCAASGFTFSNYGMHWVRQAPGKGLEWVAFISYDANHKYSTNSVKGRFTISRDNSKNTLYLQMNSLRTEDTAVYYCASMDGLHPGTAQFYGMDVWGQGTTVTVSS
VL: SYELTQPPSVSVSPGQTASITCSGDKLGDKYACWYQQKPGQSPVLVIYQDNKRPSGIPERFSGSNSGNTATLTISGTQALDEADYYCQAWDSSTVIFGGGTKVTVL
B3: JN024 (antibody, V domains shown)
VH: QVQLQESGPKLMKPSQTLSLTCAVSGASIRSGGYYWSWIRQHPGKGLEWIGYIYYSGSTYYNPSLKSRATISVDTSKNQFSLKLTSVTAADTAVYYCARAGRWFGELFRGGGYFDYWGLGTLVTVSS
VL: AIRMTQSPSSLSASVGDRVTITCQASQDIGIFLNWYQQKSGEAPKLLIYDASNLETGVPSRFSGSGSGTDFIFIIRNLQPEDSATYYCQQHNHLPRVTFGPGTKVDIK
B4: JN112 (antibody, V domains shown)
VH: QVQLQESGPGLVKPSQTLSLTCTVSGGSISSGDYYWSWIRQPPGKGLEWIGYIYYSGSTYYNPSLKSRVTISVDTSKNQFSLKLSSVTAADTAVYYCAREGTIFGEPFDYWGQGTLVT
VL: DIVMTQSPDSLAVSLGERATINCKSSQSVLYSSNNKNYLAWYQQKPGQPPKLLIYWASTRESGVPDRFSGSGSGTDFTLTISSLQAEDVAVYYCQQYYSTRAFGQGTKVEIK
B5: JN011 (antibody, V domains shown)
VH: VQLVESGGGVVQPGRSLRLSCAASGFTFSSYAMHWVRQAPGKGLEWVAVISYDGSNKYYADSVKGRFTISRDNSKNTLYLQMNSLRAEDTAVYYCAGSLGEEYYYYYYGMDVWGQGTTVTVSS
VL: NFMLTQPHSVSESPGKTVTISCTGSSGSIASNYVQWYQQRPGSAPTTVIYEDNQRPSGVPDRFSGSIDSSSNSASLTISGLKTEDEADYYCQSYDSSNWVFGGGTKLTVL
B6: JN020 (antibody, V domains shown)
VH: EVQLVESGGDLVRRGESLRLSCAASGFTFSNHWMTWVRQAPGRGLEWVANIEGDGSDKYYVDSVKGRFTISRDNARNLLFLYMNALRGDDTAIYYCARHSATYHGLDQWGQGTLVTVSS
VL: LTQPRSVSGSPGQSVTISCTGTSSDVGGYIFVSWYQRHPGKAPKLILFHVDKRPSGVPDRFSGSRSGNTASLTISGLQTEDEADYDCYSFAGTIWMFGGGTRLTVL
B7: JN231 (antibody, V domains shown)
VH: VQLVESGGGVVQPGRSLRLSCAASGFTFSSYGMHWVRQAPGKGLEWVAVISYDGSNKYYADSVKGRFTISRDNSKNTLYLQMNSLRAEDTAVYYCAKDSRYYDFWSGYLGPDEYYYYYYMDVWGKGTTVTVSS
VL: not shown
B8: JN220 (antibody, V domains shown)
VH: VQLVESGGGVVQPGRSLRLSCAASGFTFSSYTMHWVRQAPGKGLEWVAVISYDGSNKYYADSVKGRFTISRDNSKNTLYLQMNSLRAEDTAVYYCAISSGWYSMSGAFDIWGQGTMVTVSS
VL: QSALTQPRSVSGSPGQSVTISCTGTSSDVGGYNYVSWYQQHPGKAPKLMIYDVSKRPSGVPDRFSGSKSGNTASLTISGLQAEDEADYYCCSYAGSYRVFGTGTKVTVL
B9: JN111 (antibody, V domains shown)
VH: QVQLQESGPGLVRPSETLSLTCTVSGASITSYFWTWIRQAPGKGLEWIGYIYYSGSTNYNPSLKSRGTISVDTSKNQFSLKLSSVTAADTAVYYCARGMSDVVIVPAALSFGYDDAYYYYYYMDVWGKGTTVTVSS
VL: QSALTQPASVSGSLGQSITISCTGTSSDVGSYNLVSWYQQHPGKVPKLMIYEANKRASGVSDRFSGSKTDNTASLTISGLQAEDEADYYCCSYAGSRTHVIFGGGTKLTV
B10: JN006 (antibody, V domains shown)
VH: VQLVESGGGVVQPGRSLRLSCAASGFTFSNYVMHWVRQAPGKGLEWVAVMSSDGSIKYYADSVKGRFTVSRDNSKNTLYLQMNSLRPEDTAVYYCARGGRYSGSHTGDAFDIWGQGTMVTVSS
VL: SYELTQPPSVSVSPGQTARITCSGDALPNRYSYWYQQKPGQAPVLVIFKDSERPSGIPERFSGSSSGTTVTLTISGVQAEDEADYYCQSADSSGTWVFGGGTKLTVL

molecular target: SARS-CoV-2 Wuhan-Hu-1 NTD (SARS-CoV-2, UniProt P0DTC2); assay: cell-based or functional assay

Point of comparison: B2, “neutralisation IC50, WT (293TAce2)” value 0.0345 µg/mL. Against it:
- B1 — higher, > 1 µg/mL
- B3 — higher, > 1 µg/mL
- B4 — higher, > 1 µg/mL
- B5 — higher, > 1 µg/mL
- B6 — higher, > 1 µg/mL
- B7 — higher, > 1 µg/mL
- B8 — higher, > 1 µg/mL
- B9 — higher, > 1 µg/mL
- B10 — higher, > 1 µg/mL
